Biological target: endogenous p32 (ASF/SF2 splicing factor-associated protein) (human (endogenous in HEK293T)) (UniProt Q07021)
Experiment: co-IP

Sequence of UniProt Q07021 (Q07021 74-282): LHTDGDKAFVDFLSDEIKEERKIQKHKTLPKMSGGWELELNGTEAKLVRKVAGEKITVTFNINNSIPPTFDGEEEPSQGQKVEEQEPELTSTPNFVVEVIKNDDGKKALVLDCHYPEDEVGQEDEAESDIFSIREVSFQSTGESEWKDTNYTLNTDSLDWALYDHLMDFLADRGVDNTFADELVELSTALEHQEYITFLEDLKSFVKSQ

increase of RNAPII co-precipitated with p32 in the presence of Tat: 50%
Substance: RNA polymerase II (RNAPII) (complex)

From publication PMC9910500
